Here are results for two sequences from patent publication US10081661.

Common to all, as to test: cell_activity
In data set [1] the test system is ZFN SBS#47864 (human albumin). The conditions noted are these: paired with 47931; HepG2.
Data set [2] deals with ZFN SBS#47171 (human albumin). The conditions noted are these: paired with 47079; K562, 75 ng mRNA.
The subject of data set [3] is ZFN SBS#47863 (human albumin). As to conditions: paired with 47898; K562.
Data set [4] deals with ZFN SBS#47192 (human albumin). The conditions noted are these: paired with 47079; K562.
Data set [5] relates to ZFN SBS#40477 (human albumin). The conditions noted are these: paired with 47192; HepG2.
In data set [6] the test system is ZFN SBS#47079 (human albumin). The conditions noted are these: paired with 47863; K562.
Data set [7] relates to ZFN SBS#47931 (human albumin). The conditions noted are these: paired with 47863; K562.
The subject of data set [8] is ZFN SBS#47169 (human albumin). As to conditions: paired with 47171; HepG2, 100 ng mRNA each.
Data set [9] relates to ZFN SBS#47898 (human albumin). The conditions noted are these: paired with 47863; K562.

With “TTTGGGATAGTTATGAATTCAATCTTCA (double strand) [human albumin site]”, the activity in data set [1] is 21.3 % indels; in data set [2] it was 79.4 % indels; in data set [3] it was 91.9 % indels; in [4] it was 77.9 % indels.
“CCTATCCATTGCACTATGCTTTATTTAA (double strand) [human/rhesus albumin site]”: the activity in data set [5] amounted to 23.7 % indels; in [6] it was 86.8 % indels; in data set [7], 78.9 % indels; in [8], 22.2 % indels; in data set [9], 91.9 % indels.
